Positions count from the first letter of the chain named. Names may count otherwise.

The target in experiment [1] is T1, 가용형 인간 FcγRIa (human, UniProt P12314 16-292, limits assumed).
T1 construct: also called hFcγRIa; not shown: His tag
The experiment in a line: SPR (BIACORE T200), antibody captured on rProtein L, soluble FcγR as analyte, 20C. A general note: In SPR one partner is held on a chip, and binding of the other changes the refractive index at the surface.

Experiment [2] has as its target T2, 가용형 인간 FcγRIIIa (human, UniProt P08637 17-208, limits assumed).
T2 construct: also called hFcγRIIIa; not shown: His tag
The description is as above.

Experiment [3] deals with T3, 가용형 필리핀 원숭이 FcγRIIIa (필리핀 원숭이 (cynomolgus monkey), UniProt Q8SPW2 17-208, limits assumed).
T3 construct: also called cynoFcγRIIIa; not shown: His tag
T3 sequence (Q8SPW2 17-208 limits assumed): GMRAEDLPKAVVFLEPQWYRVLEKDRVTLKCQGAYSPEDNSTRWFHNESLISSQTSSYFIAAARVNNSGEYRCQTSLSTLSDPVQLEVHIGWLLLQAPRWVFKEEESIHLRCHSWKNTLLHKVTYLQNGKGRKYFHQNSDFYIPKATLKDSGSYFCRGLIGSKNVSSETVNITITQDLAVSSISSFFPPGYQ
The experiment is described as above.

The target of experiment [4] is T4, 가용형 인간 FcγRIIb (human, UniProt P31994 43-217, limits assumed).
T4 construct: also called hFcγRIIb; hFcγRII2b; not shown: His tag
T4 sequence (looked up): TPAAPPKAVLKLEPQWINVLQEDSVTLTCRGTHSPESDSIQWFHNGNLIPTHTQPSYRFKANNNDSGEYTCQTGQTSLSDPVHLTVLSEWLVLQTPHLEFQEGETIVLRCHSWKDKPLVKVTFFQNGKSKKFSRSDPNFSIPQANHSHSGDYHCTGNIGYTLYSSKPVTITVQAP
In words: SPR (BIACORE T200), hFcγRIIb captured by anti-His antibody, IgE-antibody complex as analyte, pH 7.4, 25C.

T1 sequence (P12314 16-292 limits assumed): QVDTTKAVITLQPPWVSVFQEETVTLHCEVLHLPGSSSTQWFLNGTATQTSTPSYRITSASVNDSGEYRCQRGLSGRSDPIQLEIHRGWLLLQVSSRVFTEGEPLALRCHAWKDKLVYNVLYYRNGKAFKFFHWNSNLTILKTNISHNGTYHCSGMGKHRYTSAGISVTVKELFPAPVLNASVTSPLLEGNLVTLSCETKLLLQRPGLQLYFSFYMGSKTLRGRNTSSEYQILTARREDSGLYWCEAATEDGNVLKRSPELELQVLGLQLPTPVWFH
T2 sequence (P08637 17-208 limits assumed): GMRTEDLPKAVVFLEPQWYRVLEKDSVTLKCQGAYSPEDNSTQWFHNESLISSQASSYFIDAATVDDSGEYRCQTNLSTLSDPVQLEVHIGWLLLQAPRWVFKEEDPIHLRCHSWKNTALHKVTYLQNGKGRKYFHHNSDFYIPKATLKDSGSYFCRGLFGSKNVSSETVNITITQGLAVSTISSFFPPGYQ

B1: H1009/L395-F1886s (antibody)
heavy: QVQLVESGGGLVQPGGSLRLSCAASGFTFSDYYLSWVRQAPGKGLEWVGLIRNKDNYHTPEYSASVKGRFTISRDDSKNSLYLTMSDLKTEDTAVYYCARENHRYDVELAYWGQGTLVTVSSASTKGPSVFPLAPSSKSTSGGTAALGCLVKDYFPEPVTVSWNSGALTSGVHTFPAVLQSSGLYSLSSVVTVPSSSLGTQTYICNVNHKPSNTKVDKKVEPKSCDKTHTCPPCPAPELRRGPKVFLFPPKPKDTLMISRTPEVTCVVVDVSHEDPEVKFNWYVDGVEVHNAKTKPREEQYNSTYRVVSVLTVLHQDWLNGKEYKCKVSNKALPAPIEKTISKAKGQPREPQVYTLPPSREEMTKNQVSLTCLVKGFYPSDIAVEWESNGQPENNYKTTPPVLDSDGSFFLYSKLTVDKSRWQQGNVFSCSVLHEALHAHTTRKELSLSP
light: DIQMTQSPSSLSASVGDRVTITCRASEIIYSYLAWYQQKPGKAPKLLIYKAKTHADGVPSRFSGSGSGTDFTFTISSLQPEDIATYYCKHHFGFPRTFGQGTKVEIKRTVAAPSVFIFPPSDEQLKSGTASVVCLLNNFYPREAKVQWKVDNALQSGNSQESVTEQDSKDSTYSLSSTLTLSKADYEKHKVYACEVTHQGLSSPVTKSFNRGEC
notes: also called H1009-F1886s/L395-k0MT
For B1, the binding result in experiment [1], in experiment [2] and in experiment [3] was “no binding” in each case.

B2: H1009/L395-F1974m (antibody)
heavy: B1 heavy with K244S, A332G, A335S, P336S
light: B1 light
notes: also called H1009-F1974m/L395-k0MT
With B2, the binding result in experiment [1], in experiment [2] and in experiment [3] was “no binding” in each case.

B3: Ab1H-P1394m/Ab1L (antibody, human IgG1, kappa)
heavy: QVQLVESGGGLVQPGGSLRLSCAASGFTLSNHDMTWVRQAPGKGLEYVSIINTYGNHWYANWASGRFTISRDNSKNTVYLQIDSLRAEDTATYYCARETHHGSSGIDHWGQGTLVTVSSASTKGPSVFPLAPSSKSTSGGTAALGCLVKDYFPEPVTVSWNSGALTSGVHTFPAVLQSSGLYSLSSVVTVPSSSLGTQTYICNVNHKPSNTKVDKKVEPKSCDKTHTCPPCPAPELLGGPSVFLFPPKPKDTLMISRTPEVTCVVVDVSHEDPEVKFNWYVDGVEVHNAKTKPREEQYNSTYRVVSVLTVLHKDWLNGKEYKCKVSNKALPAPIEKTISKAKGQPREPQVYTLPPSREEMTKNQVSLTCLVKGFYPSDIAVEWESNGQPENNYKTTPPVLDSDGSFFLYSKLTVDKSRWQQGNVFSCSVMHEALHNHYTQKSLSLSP
light: DIQMTQSPSSVSASVGDRVTITCQASESIYSGLAWYQQKPGQPPKLLIYDHSTLASGVPSRFSGSGSGTEYALTISSLQPEDFATYYCQHADYAHHSDNVFGGGTKVEIKRTVAAPSVFIFPPSDEQLKSGTASVVCLLNNFYPREAKVQWKVDNALQSGNSQESVTEQDSKDSTYSLSSTLTLSKADYEKHKVYACEVTHQGLSSPVTKSFNRGEC
notes: Ab1H with Q311K (EU numbering)
As to B3, the binding result in experiment [4] is reported as “binds”.

Source of the values: patent KR20180006452A (dated 2018).
